Measured values as given in patent publication US20090170766A1, “Chimeric Kunitz Domains and their Use” (BAYER HEALTHCARE AG, priority 2006, published 2009).
Positions count from the first letter of the chain named. Where two headings read alike, the source gives them in different places. Positions of bridges follow the written chain, without caps; N, C: chain ends. No end group written: not given here.

B1: human tissue factor pathway inhibitor 1 Kunitz domain 1 (hTFPI D1) (other)
chain: MHSFCAFKADDGPCKAIMKRFFFNIFTRQCEEFIYGGCEGNQNRFESLEECKKMCTRD
B2: TFPI mut4 (SEQ ID NO: 5) (designed binder)
chain: MHSFCAFKAETGPCRAAHPRWWFNIFTRQCEEFIYGGCEGNQNRFESLEECKKMCTRD
B3: TFPI mut3 (SEQ ID NO: 4) (designed binder)
chain: B2 chain with W22F
B4: TFPI mut2 (SEQ ID NO: 7) (designed binder)
chain: B1 chain with K15R, I17A
B5: TFPI mut5 (SEQ ID NO: 8) (designed binder)
chain: B2 chain with E10D, T11D
B6: TFPI mut6 (SEQ ID NO: 9) (designed binder)
chain: B1 chain with F22W
B7: TFPI random (SEQ ID NO: 10) (designed binder)
chain: B1 chain with D10E, D11T, K15R, I17A
B8: TFPI mut13EA (SEQ ID NO: 18) (designed binder)
chain: EAMHSFCAFKAVTGPCKARIIRFFFNIFTRQCEEFIYGGCEGNQNRFESLEECKKMCTRD
B9: TFPI mut4EA (SEQ ID NO: 20) (designed binder)
chain: B8 chain with V12E, K17R, R19A, I20H, I21P, F23W, F24W
B10: TFPI mut11EA (SEQ ID NO: 29) (designed binder)
chain: B8 chain with K17R, R19S, I20F, I21P, F23W
B11: TFPI mut15EA (SEQ ID NO: 31) (designed binder)
chain: B8 chain with K17R, R19A, I20M, I21K, F24W
B12: TFPI mut3EA (SEQ ID NO: 19) (designed binder)
chain: B8 chain with V12E, K17R, R19A, I20H, I21P, F23W
modifications: ends and bridges not checked; cysteine pairing not given here
B13: TFPI mut12EA (SEQ ID NO: 30) (designed binder)
chain: B8 chain with V12S
B14: TFPI mut10EA (SEQ ID NO: 28) (designed binder)
chain: B8 chain with V12Y, K17R, R19A
B15: TFPI mut8EA (SEQ ID NO: 26) (designed binder)
chain: B8 chain with V12Y, R19A
B16: TFPI mut7EA (SEQ ID NO: 25) (designed binder)
chain: B8 chain with V12Y

Key:
human plasmin [1] = target: T1, human plasmin (Homo sapiens, UniProt P00747); experiment: Inhibition of plasmin, fluorogenic substrate assay; type: biochemical
T1 construct: enzymatic activities of trypsin, plasmin and plasma kallikrein; purchased Enzyme Research Hplas
T1 sequence (P00747 581-810 limits assumed): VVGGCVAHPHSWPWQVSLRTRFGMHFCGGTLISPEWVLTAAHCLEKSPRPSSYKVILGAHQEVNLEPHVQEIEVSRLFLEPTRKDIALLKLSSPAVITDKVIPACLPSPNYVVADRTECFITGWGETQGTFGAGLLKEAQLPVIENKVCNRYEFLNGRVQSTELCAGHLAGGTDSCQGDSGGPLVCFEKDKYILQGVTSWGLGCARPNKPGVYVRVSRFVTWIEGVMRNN
T1 sequence (P00747 97-580 partner limits assumed): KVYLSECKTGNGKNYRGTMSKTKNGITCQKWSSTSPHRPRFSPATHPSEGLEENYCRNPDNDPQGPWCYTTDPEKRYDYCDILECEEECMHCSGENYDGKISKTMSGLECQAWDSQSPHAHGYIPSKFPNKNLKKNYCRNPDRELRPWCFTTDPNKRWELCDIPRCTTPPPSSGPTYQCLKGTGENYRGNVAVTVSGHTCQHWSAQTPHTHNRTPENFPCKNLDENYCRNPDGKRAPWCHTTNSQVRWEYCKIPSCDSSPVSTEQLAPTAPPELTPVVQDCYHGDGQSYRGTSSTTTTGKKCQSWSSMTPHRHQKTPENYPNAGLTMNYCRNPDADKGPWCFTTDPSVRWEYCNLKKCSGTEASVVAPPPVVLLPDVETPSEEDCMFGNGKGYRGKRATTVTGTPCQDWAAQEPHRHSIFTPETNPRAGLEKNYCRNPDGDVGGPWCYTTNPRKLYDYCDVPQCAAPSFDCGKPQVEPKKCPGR
Experimental: (§1) The inhibitory potency of TFPI mut3 on the enzymatic activities of trypsin, plasmin and plasma kallikrein were determined with the aid of fluorogenic substrates in biochemical assays in white 384-well microtitre plates. The assay buffer was composed of 50 mM Tris/Cl, pH 7.4, 100 mM NaCl, 5 mM CaCl2, 0.08% (w/v) BSA. The assay conditions were specifically as follows:
(§2) 10 μl of a serial dilution of TFPI mut3EA were introduced into each well and preincubated with 20 μl of enzyme at RT for 5 min. The reaction was then started by adding 20 μl of substrate to each. The measurement took place after 60-90 min in a Tecan reader with an excitation wavelength of 360 nm and an emission wavelength of 465 nm. Dose-activity plots and half-maximum inhibitory constants (IC50 values) were determined using GraphPad Prism software (version 4.02).

human plasma kallikrein [2] = target: T2, human plasma kallikrein (Homo sapiens, UniProt P03952); experiment: Inhibition of plasma kallikrein, fluorogenic substrate assay; type: biochemical
T2 construct: purchased Calbiochem 420307
T2 sequence (P03952 391-638 limits assumed): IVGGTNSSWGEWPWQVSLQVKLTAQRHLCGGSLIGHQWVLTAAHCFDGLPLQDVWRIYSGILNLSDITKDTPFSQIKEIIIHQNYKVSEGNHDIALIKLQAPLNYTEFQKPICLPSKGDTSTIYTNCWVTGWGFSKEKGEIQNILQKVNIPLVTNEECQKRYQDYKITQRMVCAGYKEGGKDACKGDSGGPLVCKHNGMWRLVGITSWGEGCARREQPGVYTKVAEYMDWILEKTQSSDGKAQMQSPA
T2 sequence (P03952 20-390 partner limits assumed): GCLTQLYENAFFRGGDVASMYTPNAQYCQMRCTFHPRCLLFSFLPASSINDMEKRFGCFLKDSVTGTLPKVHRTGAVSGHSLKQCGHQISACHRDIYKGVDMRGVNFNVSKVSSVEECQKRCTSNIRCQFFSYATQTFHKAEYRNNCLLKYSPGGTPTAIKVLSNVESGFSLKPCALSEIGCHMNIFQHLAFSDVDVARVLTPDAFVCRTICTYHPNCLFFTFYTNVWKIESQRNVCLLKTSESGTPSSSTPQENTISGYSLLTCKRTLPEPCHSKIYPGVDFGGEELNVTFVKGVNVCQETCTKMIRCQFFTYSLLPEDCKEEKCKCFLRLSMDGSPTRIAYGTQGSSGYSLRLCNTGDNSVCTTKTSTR
Experimental: as §1, §2

human trypsin [3] = experiment: Inhibition of trypsin, fluorogenic substrate assay; type: biochemical
Experimental: as §1, §2

human trypsin [4] = target: T3, human trypsin (human, UniProt P07477); experiment: cell-based or functional assay
human plasmin [5] = target: T4, human plasmin (human, UniProt P00747); experiment: cell-based or functional assay
human plasma kallikrein [6] = target: T5, human plasma kallikrein (human, UniProt P03952); experiment: cell-based or functional assay
human trypsin [7] = target: T3, human trypsin
human plasmin [8] = target: T4, human plasmin
Target sequence in this assay (P00747 97-810 limits assumed): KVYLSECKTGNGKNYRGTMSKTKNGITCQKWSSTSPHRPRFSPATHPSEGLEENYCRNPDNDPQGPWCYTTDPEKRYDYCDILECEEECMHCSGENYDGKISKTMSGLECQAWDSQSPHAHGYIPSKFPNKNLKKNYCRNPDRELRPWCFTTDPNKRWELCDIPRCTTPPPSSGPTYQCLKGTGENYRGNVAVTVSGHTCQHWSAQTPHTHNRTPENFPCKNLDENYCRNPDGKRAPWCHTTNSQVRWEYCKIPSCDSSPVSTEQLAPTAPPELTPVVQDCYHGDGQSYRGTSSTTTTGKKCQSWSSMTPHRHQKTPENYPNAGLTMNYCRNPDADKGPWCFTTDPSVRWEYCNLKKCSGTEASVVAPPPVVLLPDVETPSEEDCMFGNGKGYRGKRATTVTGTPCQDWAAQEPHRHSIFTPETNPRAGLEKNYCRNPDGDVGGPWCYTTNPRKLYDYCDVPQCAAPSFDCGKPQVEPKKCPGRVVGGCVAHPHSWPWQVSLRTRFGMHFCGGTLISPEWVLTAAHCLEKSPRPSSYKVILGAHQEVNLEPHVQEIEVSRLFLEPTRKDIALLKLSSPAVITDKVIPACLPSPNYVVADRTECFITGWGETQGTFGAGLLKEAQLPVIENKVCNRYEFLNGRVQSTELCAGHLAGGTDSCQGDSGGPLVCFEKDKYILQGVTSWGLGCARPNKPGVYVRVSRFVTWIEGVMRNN

human plasma kallikrein [9] = target: T5, human plasma kallikrein

Molecule	IC50 (human plasmin [1]) [nM]	IC50 (human plasma kallikrein [2]) [nM]	Trypsin IC50 [nM], inhibition of enzymatic activity, fluorogenic substrate (human trypsin [7]) [nM]	Plasmin IC50 [nM], inhibition of enzymatic activity, fluorogenic substrate (human plasmin [8]) [nM]	Plasma kallikrein IC50 [nM], inhibition of enzymatic activity, fluorogenic substrate (human plasma kallikrein [9]) [nM]	other results
EAMHSFCAFKASTGPCKARIIRFFFNIFTRQCEEFIYGGCEGNQNRFESLEECKKMCTRD (disulfide 7-57, 16-40, 32-53) [SEQ ID NO: 30]	56	2.34				
EAMHSFCAFKAYTGPCKARIIRFFFNIFTRQCEEFIYGGCEGNQNRFESLEECKKMCTRD (disulfide 7-57, 16-40, 32-53) [SEQ ID NO: 25]	52	1.19				
MHSFCAFKADDGPCKAIMKRFFFNIFTRQCEEFIYGGCEGNQNRFESLEECKKMCTRD (disulfide 5-55, 14-38, 30-51) [hTFPI D1, reference compound]		> 10				
EAMHSFCAFKAVTGPCKARIIRFFFNIFTRQCEEFIYGGCEGNQNRFESLEECKKMCTRD (disulfide 7-57, 16-40, 32-53) [SEQ ID NO: 18]	47	1.48				
EAMHSFCAFKAVTGPCRASFPRWFFNIFTRQCEEFIYGGCEGNQNRFESLEECKKMCTRD (disulfide 7-57, 16-40, 32-53) [SEQ ID NO: 29]	19	16				
EAMHSFCAFKAETGPCRAAHPRWFFNIFTRQCEEFIYGGCEGNQNRFESLEECKKMCTRD (disulfide 7-57, 16-40, 32-53) [SEQ ID NO: 19]	30	3				
EAMHSFCAFKAYTGPCRAAIIRFFFNIFTRQCEEFIYGGCEGNQNRFESLEECKKMCTRD (disulfide 7-57, 16-40, 32-53) [SEQ ID NO: 28]	77	8				
MHSFCAFKAETGPCRAAHPRWFFNIFTRQCEEFIYGGCEGNQNRFESLEECKKMCTRD (disulfide 5-55, 14-38, 30-51) [SEQ ID NO: 4]	32	3				
EAMHSFCAFKAYTGPCKAAIIRFFFNIFTRQCEEFIYGGCEGNQNRFESLEECKKMCTRD (disulfide 7-57, 16-40, 32-53) [SEQ ID NO: 26]	83	194				
MHSFCAFKADDGPCKAIMKRFWFNIFTRQCEEFIYGGCEGNQNRFESLEECKKMCTRD (disulfide 5-55, 14-38, 30-51) [SEQ ID NO: 9]	497	> 10				
MHSFCAFKAETGPCRAAMKRFFFNIFTRQCEEFIYGGCEGNQNRFESLEECKKMCTRD (disulfide 5-55, 14-38, 30-51) [SEQ ID NO: 10]	27	48				
MHSFCAFKADDGPCRAAHPRWWFNIFTRQCEEFIYGGCEGNQNRFESLEECKKMCTRD (disulfide 5-55, 14-38, 30-51) [SEQ ID NO: 8]	267	1				
SEQ ID NO: 5: hTFPI D1 variant: MSSFCAFKAETGPCRAAHPRWWFNIFTRQCEEFIYGGCEGNQNRFESLEECKKMCTRD						IC50 (human trypsin [3]): 8 nM; IC50 (human plasmin [1]; human plasmin, read-out: Plasmin IC50): 24 nM; IC50 (human plasma kallikrein [2]; human plasma kallikrein, read-out: Plasma kallikrein IC50): 3 nM
MHSFCAFKADDGPCRAAMKRFFFNIFTRQCEEFIYGGCEGNQNRFESLEECKKMCTRD (disulfide 5-55, 14-38, 30-51) [SEQ ID NO: 7]	195	11				
EAMHSFCAFKAETGPCRAAHPRWWFNIFTRQCEEFIYGGCEGNQNRFESLEECKKMCTRD (disulfide 7-57, 16-40, 32-53) [SEQ ID NO: 20]	24	2				
EAMHSFCAFKAVTGPCRAAMKRFWFNIFTRQCEEFIYGGCEGNQNRFESLEECKKMCTRD (disulfide 7-57, 16-40, 32-53) [SEQ ID NO: 31]	48	75				

Molecule	IC50 (human plasmin [1]) [nM]	IC50 (human plasma kallikrein [2]) [nM]	Trypsin IC50 [nM], inhibition of enzymatic activity, fluorogenic substrate (human trypsin [7]) [nM]	Plasmin IC50 [nM], inhibition of enzymatic activity, fluorogenic substrate (human plasmin [8]) [nM]	Plasma kallikrein IC50 [nM], inhibition of enzymatic activity, fluorogenic substrate (human plasma kallikrein [9]) [nM]	other results
B1						Trypsin IC50 [nM], inhibition of enzymatic activity, fluorogenic substrate (human trypsin [4]): 44 nM; Plasmin IC50 [nM], inhibition of enzymatic activity, fluorogenic substrate (human plasmin [5]): 559 nM; Plasma kallikrein IC50 [nM], inhibition of enzymatic activity, fluorogenic substrate (human plasma kallikrein [6]): > 10000 nM
B2			8	24	3	
B3			5	32	3	
B4			19	195	11	
B5			266	267	1	
B6			36	497	> 10000	
B7			6	27	48	
B8			20	47	1480	
B9			7	24	2	
B10			4	19	16	
B11			1	48	75	
B12			5	30	3	
B13			21	56	2340	
B14			17	77	8	
B15			64	83	194	
B16			38	52	1190	
